This is an account of results in patent US20170306033A1 (Amgen, published 2017).

Experiment [1] has as its target human CGRP receptor (human, UniProt Q16602 23-461; O60894 27-148). Briefly: cell-based or functional assay.
Experiment [2] addresses T1, human PAC1 receptor (human, UniProt P41586 21-468).
T1 sequence: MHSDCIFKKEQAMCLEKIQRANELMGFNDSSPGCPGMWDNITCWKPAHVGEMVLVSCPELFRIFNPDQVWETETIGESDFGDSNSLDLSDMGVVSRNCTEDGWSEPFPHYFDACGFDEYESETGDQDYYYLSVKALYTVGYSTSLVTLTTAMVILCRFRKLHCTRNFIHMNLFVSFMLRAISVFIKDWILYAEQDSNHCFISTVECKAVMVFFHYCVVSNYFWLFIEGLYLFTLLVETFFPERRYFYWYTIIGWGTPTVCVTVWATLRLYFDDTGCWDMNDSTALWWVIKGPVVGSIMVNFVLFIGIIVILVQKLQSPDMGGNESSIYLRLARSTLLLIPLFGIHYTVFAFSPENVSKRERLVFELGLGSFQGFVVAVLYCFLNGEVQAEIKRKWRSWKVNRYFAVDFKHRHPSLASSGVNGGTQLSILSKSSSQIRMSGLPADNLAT
Briefly: cell-based or functional assay.

Sequence of human CGRP receptor (Q16602 23-461 limits assumed, chain 1 of 2): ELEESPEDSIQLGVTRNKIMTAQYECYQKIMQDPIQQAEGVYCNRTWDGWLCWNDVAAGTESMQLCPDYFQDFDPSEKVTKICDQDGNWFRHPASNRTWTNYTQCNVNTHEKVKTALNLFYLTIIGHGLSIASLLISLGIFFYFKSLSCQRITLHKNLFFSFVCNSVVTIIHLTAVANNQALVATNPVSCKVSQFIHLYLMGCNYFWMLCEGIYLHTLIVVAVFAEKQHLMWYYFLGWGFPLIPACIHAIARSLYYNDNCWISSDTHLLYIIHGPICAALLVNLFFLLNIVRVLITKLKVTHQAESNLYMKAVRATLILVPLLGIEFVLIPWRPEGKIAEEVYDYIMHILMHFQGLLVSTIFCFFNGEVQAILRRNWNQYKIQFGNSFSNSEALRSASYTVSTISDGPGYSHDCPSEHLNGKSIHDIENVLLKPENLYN
Sequence of human CGRP receptor (O60894 27-148 limits assumed, chain 2 of 2): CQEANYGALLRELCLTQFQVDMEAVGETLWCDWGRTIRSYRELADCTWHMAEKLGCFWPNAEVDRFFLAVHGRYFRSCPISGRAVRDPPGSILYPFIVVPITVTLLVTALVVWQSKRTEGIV

B1: iPS:392533 (bispecific antibody, human IgG1, kappa, lambda, N297G)
light: QSVLTQPPSVSAAPGQKVTISCSGSSSNIGNNYVSWYQQLPGTAPKLLIYDNNKRPSGIPDRFSGSKSGTSTTLGITGLQTGDEADYYCGTWDSRLSAVVFGGGTKLTVLGQPKANPTVTLFPPSSEELQANKATLVCLISDFYPGAVTVAWKADGSPVKAGVETTKPSKQSNNKYAAKSYLSLTPEQWKSHRSYSCQVTHEGSTVEKTVAPTECS
heavy: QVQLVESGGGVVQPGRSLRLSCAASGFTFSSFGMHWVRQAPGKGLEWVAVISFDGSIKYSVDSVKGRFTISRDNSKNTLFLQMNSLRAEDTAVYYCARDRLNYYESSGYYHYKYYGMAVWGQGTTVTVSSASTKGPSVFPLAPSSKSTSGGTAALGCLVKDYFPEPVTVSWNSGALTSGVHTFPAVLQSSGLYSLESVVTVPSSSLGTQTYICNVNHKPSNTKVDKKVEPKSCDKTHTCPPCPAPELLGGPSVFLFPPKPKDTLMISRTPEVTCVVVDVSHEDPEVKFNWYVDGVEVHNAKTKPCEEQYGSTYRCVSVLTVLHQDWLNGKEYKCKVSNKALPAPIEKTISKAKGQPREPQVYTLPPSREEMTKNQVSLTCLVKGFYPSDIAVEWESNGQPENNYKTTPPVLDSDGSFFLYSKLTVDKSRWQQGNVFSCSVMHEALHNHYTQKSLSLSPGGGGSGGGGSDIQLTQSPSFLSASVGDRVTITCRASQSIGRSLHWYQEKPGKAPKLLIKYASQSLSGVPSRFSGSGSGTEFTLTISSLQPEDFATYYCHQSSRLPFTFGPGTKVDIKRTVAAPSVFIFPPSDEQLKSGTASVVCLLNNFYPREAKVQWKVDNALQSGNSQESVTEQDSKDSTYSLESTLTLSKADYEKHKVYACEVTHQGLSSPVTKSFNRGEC
chain: QVQLVESGAEVVKPGASVKVSCKASGFTFSRFAMHWVRKAPGQGLEWMGVISYDGGNKYYAESVKGRVTMTRDTSTSTLYMELSSLRSEDTAVYYCARGYDVLTGYPDYWGQGTLVTVSSASTKGPSVFPLAPSSKSTSGGTAALGCLVKDYFPEPVTVSWNSGALTSGVHTFPAVLQSSGLYSLKSVVTVPSSSLGTQTYICNVNHKPSNTKVDKKV
As for B1, the “Human CGRP Receptor IC50” value in experiment [1] amounted to 0.59 nM. Also, in experiment [2], the “Human PAC1 Receptor IC50” value came to 206 nM.

B2: iPS:392534 (bispecific antibody, human IgG1, kappa, lambda, N297G)
light: QSVLTQPPSVSAAPGQKVTISCSGSSSNIGNNYVSWYQKLPGTAPKLLIYDNNKRPSGIPDRFSGSKSGTSTTLGITGLQTGDEADYYCGTWDSRLSAVVFGGGTKLTVLGQPKANPTVTLFPPSSEELQANKATLVCLISDFYPGAVTVAWKADGSPVKAGVETTKPSKQSNNKYAAKSYLSLTPEQWKSHRSYSCQVTHEGSTVEKTVAPTECS
heavy: not shown
chain: QVQLVESGAEVVKPGASVKVSCKASGFTFSRFAMHWVRQAPGQGLEWMGVISYDGGNKYYAESVKGRVTMTRDTSTSTLYMELSSLRSEDTAVYYCARGYDVLTGYPDYWGQGTLVTVSSASTKGPSVFPLAPSSKSTSGGTAALGCLVKDYFPEPVTVSWNSGALTSGVHTFPAVLQSSGLYSLKSVVTVPSSSLGTQTYICNVNHKPSNTKVDKKV
Consider B2, for which the “Human CGRP Receptor IC50” value in experiment [1] was found to be 0.37 nM. The “Human PAC1 Receptor IC50” value in experiment [2] stood at 349 nM.

B3: iPS:392535 (bispecific antibody, human IgG1, kappa, lambda, N297G)
light: QSVLTQPPSVSAAPGQKVTISCSGSSSNIGNNYVSWYQKLPGTAPKLLIYDNNKRPSGIPDRFSGSKSGTSTTLGITGLQTGDEADYYCGTWDSRLSAVVFGGGTKLTVLGQPKANPTVTLFPPSSEELQANKATLVCLISDFYPGAVTVAWKADGSPVKAGVETTKPSKQSNNKYAAKSYLSLTPEQWKSHRSYSCQVTHEGSTVEKTVAPTECS
heavy: not shown
chain: QVQLVESGAEVVKPGASVKVSCKASGFTFSRFAMHWVRKAPGQGLEWMGVISYDGGNKYYAESVKGRVTMTRDTSTSTLYMELSSLRSEDTAVYYCARGYDVLTGYPDYWGQGTLVTVSSASTKGPSVFPLAPSSKSTSGGTAALGCLVKDYFPEPVTVSWNSGALTSGVHTFPAVLQSSGLYSLKSVVTVPSSSLGTQTYICNVNHKPSNTKVDKKV
For the molecule B3, the “Human CGRP Receptor IC50” value in experiment [1] is 0.41 nM. Moreover, the “Human PAC1 Receptor IC50” value in experiment [2] was 365 nM.
